The target in the test is T1, recombinant human cytokine TNFα (human, UniProt P01375 77-233).
T1 construct: Recombinant human TNFα used for immunisation, panning and ELISA; also called human TNFα; rhTNF-α
The test is described as follows: phage display selection and ELISA on coated TNFα. Here is the method: Phage selection rounds, amplification and recovery: There were performed 4 rounds of phage selection with TNFα 1 μg in PBS in an ELISA plate, sealed and incubating over night at 4° C., the cytokine is eliminated and blocking with 150 μl of PBS-BSA (3%), sealed and incubated 1 hr at 37° C.; discarding and adding 50 μl of phage-antibodies for each well, sealed and incubated with TBS-Tween 20 (0.05%) 150 for each well using the pipette to agitate. The solution is discarded and the phage-antibodies specific for TNFα are harvested after adding 50 μl per well of TBS-Trypsin [10 mg/ml]. The plate is sealed and incubated during 30 minutes, 37° C. The phage-antibodies are recovered and used to infect a culture of E. coli ER2537 (2 ml) electro-compentents (DO₆₀₀=1), during 15 minutes at room temperature. The selected phage-antibodies are amplified using serial dilutions incubating the transformants in SB media with carbencillin and helper phage VCSM13 with kanamycin. The phage-antibodies were recovered from the infected cultures of ER2537 cells by centrifugations using first PEG-8000 4% and NaCl 3, and PBS_BSA 1% (2 ml) filtering the supernatant with a 0.22 μm membrane, using 50 μl para to be selected according to the TNFα binding. […]

This is an account of results in patent publication US20110129473A1 (LABORATORIOS SILANES S A DE C V, published 2011).

T1 sequence (P01375 77-233 limits assumed): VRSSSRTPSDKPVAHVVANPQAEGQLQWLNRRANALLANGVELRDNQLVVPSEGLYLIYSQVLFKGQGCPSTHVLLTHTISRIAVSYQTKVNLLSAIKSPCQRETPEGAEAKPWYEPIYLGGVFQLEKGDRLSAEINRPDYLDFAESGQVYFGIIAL

B1: vNAR clone 65 (anti-TNFα vNAR from Heterodontus francisci) (other)
chain: ASLDQTPRTATRETGESLTVNCVLVDANYGLYNTSWYRNNPGSTDREHITIGGRYVESVNKGAKSFSLQIKDMTVEDSGTYYCKARESDYNRVGIRDYKDYDGAGTVLTVN
notes: Shark IgNAR single variable domain (vNAR), expressed from pCOMb3X in E. coli; also called TNF65
Consider B1, for which the binding result was “binds”.
